Patent US8921515B2, “Methods and compositions of preparation for proteome analysis” (Case Western Reserve University, priority 2011, dated 2014)
“Also recorded” adds a separate entry of the source. Where a name gives a salt, the structure may show the parent alone. Read-outs that look alike come from different tables or passages of the source. Square brackets hold non-standard residues; d marks the D form. Ends that are not written are not given here. Met(O) = CS(=O)CC[C@H](N)C(=O)O

Assays:
[1] = pI values of BSA tryptic peptides; type: physicochemical
[2] = test system: OS membrane protein pellet; test: Protein solubilization efficiencies of solubilizing agents (DC protein assay of supernatant)
Method: Bovine retinas obtained from WL Lawson Company (Omaha, Nebr.) were used to prepare the photoreceptor outer segment (OS) by sucrose density ultracentrifugation. All solvents used for bovine OS preparations contained protease inhibitors (1 mM EDTA, 0.2 mM PMSF, 0.7 μg/μL leupeptin, and 0.5 μg/μL pepstatin A) to inhibit protein degradation and 100 μM diethylenetriamine pentaacetic acid (DTPA) to inhibit oxidation.
The solubilized pellet solution was sonicated with a VirSonic 100 ultrasonic cell disrupter (SP Scientific, Gardiner, N.Y.) three times at 4.5 kHz of ultrasonic frequency for 9 seconds with 3-minute intervals between the sonications. The resulting protein extract was centrifuged at 15,000 g for 10 minutes, and the solubilized proteins in the supernatant were quantified using a DC protein assay kit (Bio-Rad, Hercules, Calif.).

porcine trypsin = target: T1, porcine trypsin (Sus scrofa, UniProt P00761); test: Effect of solubilizing agents on trypsin amidase activity (Ac-Lys-p-nitroaniline hydrolysis, 405 nm); type: biochemical
T1 construct: purchased Promega
T1 sequence (P00761 9-231): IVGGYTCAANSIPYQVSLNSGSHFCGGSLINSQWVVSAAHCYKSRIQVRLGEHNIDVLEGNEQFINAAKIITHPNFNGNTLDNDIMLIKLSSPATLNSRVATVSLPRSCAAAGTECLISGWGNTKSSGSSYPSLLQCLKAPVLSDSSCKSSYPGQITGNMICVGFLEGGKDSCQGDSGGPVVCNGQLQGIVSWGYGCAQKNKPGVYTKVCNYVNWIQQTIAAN
Method: To measure the amidase activity of 100 nM trypsin, we tracked the hydrolysis of 2 mM Ac-Lys-p-nitro aniline hydrochloride through absorbance increase at 405 nm over 3 min in 100 mM ABC using an ELISA plate reader (Thermo-Fisher Scientific, Waltham, Mass.).

[3] = cited from earlier work

Compound	pI [1]	further results
SLHTLFGDELCK (listed as Homo sapiens) [SEQ ID No: 11, tryptic peptide of BSA]	5.3	–
KVPQVSTPTLVEVSR (listed as Homo sapiens) [SEQ ID No:5, tryptic peptide of BSA]	8.8	–
LGEYGFQNALIVR (listed as Homo sapiens) [SEQ ID No: 10, tryptic peptide of BSA]	6.0	–
VPQVSTPTLVEVSR (listed as Homo sapiens) [SEQ ID No: 3, tryptic peptide of BSA]	6.0	–
LKPDPNTLCDEFK (listed as Homo sapiens) [SEQ ID No: 12, tryptic peptide of BSA]	4.6	–
ECCHGDLLECADDR (listed as Homo sapiens) [SEQ ID No: 17, tryptic peptide of BSA]	4.1	–
NC(N)=O [Urea, urea]	–	Protein amount solubilized [2]: 8.1 ± 3.4 μg/10μ OS membrane preparation; protein solubilized from OS membrane protein pellet [2]: 8.1 µg; trypsin activity retained (porcine trypsin; 2 M agent): approximately 50%; trypsin activity retained (porcine trypsin; 4 M agent): ~20%
ETYGDM(o)ADCCEK (ETYGD[Met(O)]ADCCEK; cysteine pairing not given here; listed as Homo sapiens) [SEQ ID No: 20, tryptic peptide of BSA]	3.9	–
RHPEYAVSVLLR (listed as Homo sapiens) [SEQ ID No: 9, tryptic peptide of BSA]	8.8	–
YNGVFQECCQAEDK (listed as Homo sapiens) [SEQ ID No: 15, tryptic peptide of BSA]	4.1	–
TCVADESHAGCEK (listed as Homo sapiens) [SEQ ID No: 19, tryptic peptide of BSA]	4.7	–
O=C(O)C(F)(F)C(F)(F)C(F)(F)C(F)(F)C(F)(F)C(F)(F)C(F)(F)F [PFOA, perfluorooctanoic acid]	–	Protein amount solubilized ([2]; OS membrane pellet in 100 mM ABC with agent at the concentration printed in the row (25 mM SDS 0.8% w/v, 25 mM PFOA 1% w/v, 4M urea, 4M Gdn-HCl), mean ± SD, triplicate): 47.4 ± 4.4 μg/10μ OS membrane preparation; protein solubilized from OS membrane protein pellet ([2]; text: 100 mM ABC, 1% PFOA, 1% SDS, urea, Gdn-HCl): 47.4 µg; trypsin activity retained (porcine trypsin; 0.5% surfactant, control without agent = 100%): more than 80%; trypsin activity retained (porcine trypsin; PFOA concentrations up to 0.25%, control without agent = 100%): fully enzymatically activity; also recorded: full activity; pKa ([3]; carboxyl group, at infinite dilution / diluted solution, determined experimentally): 3.8; pKa ([3]; other reports): lower than 1
ETYGDMADCCEK (listed as Homo sapiens) [SEQ ID No: 21, tryptic peptide of BSA]	3.9	–
RHPYFYAPELLYYANK (listed as Homo sapiens) [SEQ ID No: 8, tryptic peptide of BSA]	8.4	–
TVMENFVAFVDK (listed as Homo sapiens) [SEQ ID No: 16, tryptic peptide of BSA]	4.4	–
N=C(N)N [Gdn-HCl, guanidine hydrochloride]	–	Protein amount solubilized [2]: 7.3 ± 4.1 μg/10μ OS membrane preparation; protein solubilized from OS membrane protein pellet [2]: 7.3 µg; trypsin activity retained (porcine trypsin; 0.1 M agent): 40%; trypsin activity retained (porcine trypsin; 0.25 M agent): 20%
KQTALVELLK (listed as Homo sapiens) [SEQ ID No: 6, tryptic peptide of BSA]	8.6	–
AEFVEVTK (listed as Homo sapiens) [SEQ ID No: 7, tryptic peptide of BSA]	4.5	–
LVTDLTK (listed as Homo sapiens) [SEQ ID No: 1, tryptic peptide of BSA]	5.8	–
YIYEIAR (listed as Homo sapiens) [SEQ ID No: 2, tryptic peptide of BSA]	6.0	–
LVNELTEFAK (listed as Homo sapiens) [SEQ ID No: 4, tryptic peptide of BSA]	4.5	–
DAFLGSFLYEYSR (listed as Homo sapiens) [SEQ ID No: 13, tryptic peptide of BSA]	4.4	–
M(o)PCTEDYLSLILNR ([Met(O)]PCTEDYLSLILNR; listed as Homo sapiens) [SEQ ID No: 14, tryptic peptide of BSA]	4.4	–
EYEATLEECCAK (listed as Homo sapiens) [SEQ ID No: 18, tryptic peptide of BSA]	4.1	–
